Source: paper PMC12697983 (PLOS Pathogens, 2025)

B1: 1C4 Fab (Fab, V domains shown)
VH: QIQLVQSGPELKKPGETVKISCKASGYTFTDYGLNWVKQAPGKGLKWMGWINTYSGEPTYNDEFRGRFAFSLETSTITAYLKINNLKNEDTATYFCARGGNWDWYFDVWGAGTTVTVSS
VL: DIVLTQSPATLSVTPGDNVSLSCRASQIISNNLHWYQQKSHESPRLLIKYASQSISGIPSRFSGSGSGTDFTLSINSVETEDFGMYFCQQSNTWPLTCGSGTKLELN
B2: 1C4 (murine monoclonal antibody, IgG format) (antibody, V domains shown)
VH: B1 VH
VL: B1 VL

Tests used:
[1] = target: SARS-CoV-2 Omicron BA.5 spike ectodomain trimer, prefusion-stabilised (BA.5-S6P) (SARS-CoV-2 Omicron BA.5, N440K | proline substitutions at 986 and 987 | proline substitutions at 986 and …); test: cryo-EM structure; conditions: both partners purified
[2] = target: spike protein on native SARS-CoV-2 virions (Victoria variant) (SARS-CoV-2, Victoria isolate (entry: …, UniProt P0DTC2, strain)); test: cryo-EM imaging of virions; conditions: one partner purified

Binder	stoichiometry N [1] [Fabs per spike trimer]	binding result [2]
B1	3	–
B2	–	binds
